Measurements as given in US20070135338A1 (published 2007).
No end group written: not given here.

Target: GLP-1R on Rinm cells
Assay: cell-based or functional assay

## HAEGTFTSDVSSYLEGQAAKEFIAWLVKGRG (not fully specified) [GLP-1 peptide]
  cAMP activity in Rinm cells (EC50): 0.4 nM
